In paper PMC11614891:
Square brackets hold non-standard residues; d marks the D form. Ends that are not written are not given here. * marks the point of attachment. Biotin = O=C1N[C@H]2[C@H](CS[C@H]2CCCCC(=O)*)N1

Target: L-19437_(D-Pep-1)
Assay: ITC; MicroCal PEAQ-ITC, 19 injections; peptide titrated over the binder (L-19437 15 uM, D-Pep-1 150 uM); PBS pH 7.4; One Set of Sites mode

- Kd: 48.7 nM
- stoichiometry N: 0.938 sites
Binder: Biotin-[dD][dE][dH][dE][dL][dL][dE][dT][dA][dA][dR][dW][dF][dY][dE][dI][dA][dK][dR][dA] [D-Pep-1]
